EP1188828A1
One block for each binder: values may come before it.

Columns and labels:
[1] = biological target: rat Reg-binding protein (rat Reg receptor, rat homologue of EXTL3/EXTR1) with N-terminal HA tag (rat); assay: radioligand binding on CHO cells stably expressing HA-tagged rat Reg receptor
[2] = biological target: rat Reg-binding protein (rat Reg receptor, rat homologue of EXTL3/EXTR1) with N-terminal HA tag (rat); assay: displacement of ^125I-labeled rat Reg protein from CHO cells stably expressing rat Reg receptor
[3] = biological target: rat Reg-binding protein (rat Reg receptor, rat homologue of EXTL3/EXTR1) with N-terminal HA tag (rat); assay: cell-based or functional assay
[4] = biological target: rat Reg-binding protein (rat Reg receptor, rat homologue of EXTL3/EXTR1) with N-terminal HA tag (rat); assay: displacement of ^125I-labeled rat Reg protein (competitor tracer) from CHO cells stably expressing rat Reg receptor

Kd [1]: 4.41 nM
Ki [2]: 1.61 nM
BrdU incorporation of CHO cell line #3 stably expressing the Reg receptor [3]: 4.01 nM
BrdU incorporation of CHO cell line #22 stably expressing the Reg receptor [3]: 1.11 nM
B1: rat Reg protein (Reg I) (ligand, UniProt P10758 22-165, looked up)
chain: QEAEEDLPSARITCPEGSNAYSSYCYYFMEDHLSWAEADLFCQNMNSGYLVSVLSQAEGNFLASLIKESGTTAANVWIGLHDPKNNRRWHWSSGSLFLYKSWDTGYPNNSNRGYCVSVTSNSGYKKWRDNSCDAQLSFVCKFKA
modifications: [^125I] label by Bolton-Hunter reagent where used as the labelled tracer; unlabeled where used as competitor

Ki [4]: 7.41 nM
B2: human REG protein (REG Iα) (ligand, UniProt P05451 23-166, looked up)
chain: QEAQTELPQARISCPEGTNAYRSYCYYFNEDRETWVDADLYCQNMNSGNLVSVLTQAEGAFVASLIKESGTDDFNVWIGLHDPKKNRRWHWSSGSLVSYKSWGIGAPSSVNPGYCVSLTSSTGFQKWKDVPCEDKFSFVCKFKN
